Where a chain is given by its changes, count along the chain named. In names and notes the source's numbering stands. Where two headings read alike, the source gives them in different places.
Tests used:
amyloid peptide Aβ4-42 [1] = target: T1, amyloid peptide Aβ4-42 (UniProt P05067 675-713); assay: ELISA, plate coated with Aβ4-42 from PSL, antibody titrated, A650nm
T1 construct: domain: Aβ4-42; Bought synthetic peptide; also called Anaspec Aβ4-42

amyloid peptide AβpE3-42 [2] = target: T2, amyloid peptide AβpE3-42 (UniProt P05067 674-713, N-terminal pyroglutamate (pE) at Aβ position 3); assay: ELISA, plate coated with AβpE3-42 from PSL, antibody titrated, A650nm
T2 construct: domain: AβpE3-42; Bought synthetic peptide; also called AβpGlu3-42; Aβ(Glp3)3-42
T2 sequence (P05067 674-713 limits assumed): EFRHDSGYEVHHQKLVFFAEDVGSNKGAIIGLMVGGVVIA
Experimental: (§1) Each well of a […] MaxiSorp plate (Nunc) was coated with 50 μL aliquots of 200 ng/mL of 1-42, pE3-42 or 4-42 amyloid peptides in PBS and incubated overnight at 4° C. The wells were washed 3× with PBS-T (0.1% Tween20) and blocked with 150 μL of 5% milk in PBS/0.05% Tween20 per well. The wells were then incubated at RT with shaking for 1 hour and washed 3× with PBS-T (0.1% Tween20). 50 μl of primary antibody serially diluted in 1% milk PBS/0.05% Tween20 was added to the wells of the assay plate using a 3-fold dilution series starting from ˜100 μg/mL. The incubation and washing step was then repeated. Anti-human kappa chain HRP (Sigma A7164-1 mL) was diluted 4,000-fold in PBS/1% milk/0.05% Tween20 and 50 μl added to each well. The incubation and washing step was repeated and then 75 μL of K-Blue substrate (Neogen) was added per well and incubated for 5-10 minutes at RT. The reaction was stopped by adding 50 μl of RED STOP solution (Neogen) to each well and the optical density was read at 650 nm.

amyloid peptide AβpE3-42 [3] = target: T2, amyloid peptide AβpE3-42; assay: as above; remark: listed apart in the source
amyloid peptide AβpE3-42 [4] = target: T2, amyloid peptide AβpE3-42; assay: ELISA, plate coated with AβpE3-42, antibody titrated, A650nm
Experimental: as §1

amyloid peptide AβpE3-42 [5] = target: T2, amyloid peptide AβpE3-42; assay: ELISA, plate coated with AβpE3-42 (target by legend paragraph 24), antibody titrated, A650nm
Experimental: as §1

amyloid peptide AβpE3-42 [6] = target: T2, amyloid peptide AβpE3-42; assay: ELISA, plate coated with AβpE3-42 from California peptides (Cal Hu), antibody titrated, A650nm
amyloid peptide AβpE3-42 [7] = target: T2, amyloid peptide AβpE3-42; assay: ELISA, plate coated with AβpE3-42, antibody titrated, A650nm; remark: listed apart in the source
Experimental: as §1

amyloid peptide Aβ4-42 [8] = target: T1, amyloid peptide Aβ4-42; assay: ELISA, plate coated with Anaspec Aβ4-42, antibody titrated after incubation in PBS or in mouse, human or cynomolgus serum, blank-subtracted OD650
amyloid peptide AβpE3-42 [9] = target: T2, amyloid peptide AβpE3-42; assay: ELISA, plate coated with AβpE3-42 (PSL), antibody titrated, blank-subtracted OD650
Experimental: as §1

amyloid peptide AβpE3-42 [10] = target: T2, amyloid peptide AβpE3-42; assay: ELISA, plate coated with AβpE3-42, antibody titrated, blank-subtracted OD650
Experimental: as §1
Therefore, F67Y, Y68N, I39W and an additional variant that combined F67Y and Y68N were generated (Table 2) and binding to Aβ1-42, AβpE3-42 and 4-42 was investigated. […] Five additional variants of the heavy chain were generated with the following mutations, S53M, S53H, R100H, L103R and L103H (Table 4b). In addition, five variants of the light chain were also generated RKF (N92W), RKG (N92Y), RKH (N92H), RKI (L94R) and RIC (L94H).

amyloid peptide AβpE3-42 [11] = target: T2, amyloid peptide AβpE3-42; assay: ELISA, plate coated with AβpE3-42, antibody titrated, signal as % Max
Experimental: as §1

amyloid peptide AβpE3-42 [12] = target: T2, amyloid peptide AβpE3-42; assay: assay not given; binding to Aβ1-42, AβpE3-42 and 4-42 was investigated
amyloid peptide Aβ4-42 [13] = target: T1, amyloid peptide Aβ4-42; assay: as above
amyloid peptide Aβ1-42 = target: T3, amyloid peptide Aβ1-42 (UniProt P05067 672-713); assay: ELISA, plate coated with Aβ1-42 (target by legend paragraph 23), antibody titrated, signal as % Max; the value lies beyond the highest concentration shown
T3 construct: domain: Aβ1-42; Bought synthetic peptide; also called amyloid full length peptide Aβ1-42
T3 sequence (P05067 672-713 limits assumed): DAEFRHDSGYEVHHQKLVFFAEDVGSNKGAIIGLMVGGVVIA

amyloid peptide Aβ4-42 [14] = target: T1, amyloid peptide Aβ4-42; assay: SPR, Biacore T200; SPR (Biacore T200), apparent KD comparable to the mouse antibody
amyloid peptide Aβ4-42 [15] = target: T1, amyloid peptide Aβ4-42; assay: ELISA, plate coated with Anaspec Aβ4-42, antibody titrated after incubation in PBS or in mouse, human or cynomolgus serum, blank-subtracted OD650 [continued]

T1 sequence (P05067 675-713 limits assumed): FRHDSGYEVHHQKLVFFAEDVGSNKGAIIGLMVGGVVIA

B1: murine NT4X-167 antibody (antibody, V domains shown)
VH: QVQLKQSGPGLVQPSQSLSITCTVSGFSLTSYGIHWVRQSPGKGLEWLGVMWSGGITDFYAAFISRLSISRDISKSQVFFKMNSLQADDTAIYYCARGSRYALDYWGQGTSVSVSS
VL: DIQMTQTTSSLSASLGDRVTISCRASQDISNYLNWYQQKPDGTVKLLIYYTSRLHSGVPSRFSGSGSGTDYSLTISNLEQEDIATYFCQQGNTLPPTFGGGTKLEIK
notes: Mouse hybridoma antibody; also called original mouse NT4X antibody
- binding result (amyloid peptide Aβ4-42 [1]): binds
- EC50 (amyloid peptide AβpE3-42 [2]): 24.9 nM
- EC50 (amyloid peptide AβpE3-42 [3]): 24.9 nM
- EC50 (read off the curve) (amyloid peptide AβpE3-42 [4]): ~0.5 µg/mL
- EC50 (amyloid peptide AβpE3-42 [5]): 2.4 µg/mL
- EC50 (amyloid peptide AβpE3-42 [6]): 15.7 nM
- EC50 (read off the curve) (amyloid peptide AβpE3-42 [7]): ~0.5 µg/mL

B2: humanized NT4X-167 RHS/RKA (antibody, mouse IgG1, V domains shown)
VH: QVQLQESGPGLVKPSETLSLTCTVSGFSLSSYGIHWIRQPPGKGLEWIGVMWSGGITDFYAAFISRVTISRDTSKNQVSLKLSSVTAADTAVYYCARGSRYALDYWGQGTLVTVSS
VL: DIQMTQSPSSLSASVGDRVTITCRASQDISNYLNWYQQKPGKAPKLLIYYTSRLHSGVPSRFSGSGSGTDFTLTISSLQPEDFATYYCQQGNTLPPTFGGGTKLEIK
notes: also called SA; RHS/KA
- binding result (amyloid peptide Aβ4-42 [8]): binds
- binding result (amyloid peptide AβpE3-42 [9]): binds

B3: (rcNT4X_S6A) R1 (antibody, V domains shown)
VH: B2 VH with H35S
VL: B2 VL
notes: also called RHS6/RKA
- binding result (amyloid peptide AβpE3-42 [10]): no binding (tested: about 120 ug/ml)

B4: (rcNT4X_S8A) R1 (antibody, V domains shown)
VH: B2 VH with H35S, D58N, A61P, A62S, F63L, I64K
VL: B2 VL
notes: also called RHS8/RKA
- binding result (amyloid peptide AβpE3-42 [10]): no binding (tested: about 120 ug/ml)

B5: humanized NT4X-167 RHB/RKA (antibody, mouse IgG1, V domains shown)
VH: B2 VH with S30T, I48L, V67L, L82M
VL: B2 VL
notes: also called BA
- EC50 (amyloid peptide AβpE3-42 [11]): 0.341 µg/mL
- EC50 (amyloid peptide AβpE3-42 [5]): 3.86 µg/mL

B6: humanized NT4X-167 RHB/RKB (antibody, mouse IgG1, V domains shown)
VH: B2 VH with S30T, I48L, V67L, L82M
VL: B2 VL with K42G, F71Y, Y87F
notes: also called HB/KB
- EC50 (amyloid peptide AβpE3-42 [11]): 0.377 µg/mL
- EC50 (amyloid peptide AβpE3-42 [5]): 2.74 µg/mL

B7: humanized NT4X-167 RHK/RKA (antibody, mouse IgG1, V domains shown)
VH: B2 VH with F27G, S30T, I48L, V67L, L82M
VL: B2 VL
- binding result (amyloid peptide AβpE3-42 [7]): binds

B8: humanized NT4X-167 RHL/RKA (antibody, mouse IgG1, V domains shown)
VH: B2 VH with L29I, S30T, I48L, V67L, L82M
VL: B2 VL
- binding result (amyloid peptide AβpE3-42 [7]): binds

B9: humanized NT4X-167 RHM/RKA (antibody, mouse IgG1, V domains shown)
VH: B2 VH with I48L, V67L, L82M
VL: B2 VL
- binding result (amyloid peptide AβpE3-42 [7]): binds

B10: humanized NT4X-167 RHN/RKA (antibody, mouse IgG1, V domains shown)
VH: B2 VH with S30T, V67L, L82M
VL: B2 VL
- binding result (amyloid peptide AβpE3-42 [7]): binds

B11: humanized NT4X-167 RHO/RKA (antibody, mouse IgG1, V domains shown)
VH: B2 VH with S30T, I48L, L82M
VL: B2 VL
- binding result (amyloid peptide AβpE3-42 [7]): binds

B12: humanized NT4X-167 RHP/RKA (antibody, mouse IgG1, V domains shown)
VH: B2 VH with S30T, I48L, V67L, R71V, L82M
VL: B2 VL
- binding result (amyloid peptide AβpE3-42 [7]): binds

B13: humanized NT4X-167 RHQ/RKA (antibody, mouse IgG1, V domains shown)
VH: B2 VH with S30T, I48L, V67L, V78F, L82M
VL: B2 VL
- binding result (amyloid peptide AβpE3-42 [7]): binds

B14: humanized NT4X-167 RHR/RKA (antibody, mouse IgG1, V domains shown)
VH: B2 VH with S30T, I48L, V67L
VL: B2 VL
- binding result (amyloid peptide AβpE3-42 [7]): binds

B15: humanized NT4X-167 RHS71/RKA (antibody, V domains shown)
VH: B2 VH with D58N, F59Y, A61P, A62S, F63L, I64K
VL: B2 VL
notes: also called RHS71 (F67Y) with RKA
- binding result (amyloid peptide AβpE3-42 [12]): binds
- binding result (amyloid peptide Aβ4-42 [13]): binds

B16: humanized NT4X-167 RHT/RKA (antibody, mouse IgG1, V domains shown)
VH: B2 VH with S30T
VL: B2 VL
notes: also called TA
- binding result (amyloid peptide AβpE3-42 [9]): binds

B17: chimeric NT4X-167 antibody (antibody, V domains shown)
VH: B1 VH
VL: B1 VL
notes: also called chimeric positive control antibody
- EC50 (amyloid peptide Aβ1-42): 214 µg/mL
- binding result (amyloid peptide Aβ4-42 [14]): binds
- EC50 (amyloid peptide AβpE3-42 [2]): 47.1 nM
- EC50 (amyloid peptide AβpE3-42 [11]): 0.118 µg/mL
- EC50 (read off the curve) (amyloid peptide AβpE3-42 [4]): ~0.07 µg/mL
- EC50 (amyloid peptide AβpE3-42 [5]): 0.227 µg/mL
- EC50 (read off the curve) (amyloid peptide AβpE3-42 [7]): ~0.07 µg/mL

B18: humanized NT4X-167 RHS7/RKA (antibody, mouse IgG1, V domains shown)
VH: B2 VH with D58N, A61P, A62S, F63L, I64K
VL: B2 VL
notes: also called S7A
- binding result (amyloid peptide Aβ4-42 [15]): binds
- binding result (amyloid peptide AβpE3-42 [10]): binds

Reference: patent US20210347867A1 (GEORG AUGUST UNIVERSIT T G TTINGEN STIFTUNG FFENTLICHEN …, published 2021)
